Ends that are not written are not given here.
Key:
[1] = target: lettuce eukaryotic translation initiation factor 4E, eIF4E^0 (susceptible cultivar) (lettuce); experiment: other fluorescence titration; steady state decrease of eIF4E tryptophan intrinsic fluorescence upon titration by VPg or VPg peptide; 25 °C, 20 mM HEPES pH 7.5, 0.25 mM NaCl, 1 mM DTT
[2] = target: lettuce eukaryotic translation initiation factor 4E, eIF4E^0 (susceptible cultivar) (lettuce); experiment: stopped-flow fluorescence kinetics; quenching of eIF4E tryptophan fluorescence after mixing 0.3 µM eIF4E with peptide (1 µM; 2.5, 5, 7.5 and 10 µM); excitation 283 nm; single exponential fit, kobs
[3] = target: T1, lettuce eIF4E (Lactuca sativa, UniProt A0A2J6L8Y7); experiment: Peptide affinity from eIF4E intrinsic fluorescence decay; type: binding
T1 construct: to obtain untagged full-length eIF4E and eIF4E∆(1–46); made in house; host or cells: E. coli BL21-AI
Description: (§1) For optical characteristics of the instrument, see [36].

[4] = target: lettuce eIF4E^1 (resistant cultivar; ∆(108–110)H and A186S) (lettuce); experiment: other fluorescence titration; as a1, but eIF4E 0.5 µM pre-incubated with m7GTP 2 µM prior to titration by VPg; 25 °C
[5] = target: lettuce eIF4E^2 (resistant cultivar; A70P) (lettuce); experiment: as above
[6] = target: lettuce eukaryotic translation initiation factor 4E, eIF4E^0 (susceptible cultivar) (lettuce); experiment: as above
[7] = target: lettuce eIF4E N-terminus-deleted form, eIF4E^0 [∆1–46] (lettuce); experiment: other fluorescence titration; steady state decrease of eIF4E tryptophan intrinsic fluorescence upon titration by VPg or VPg peptide; 25 °C, 20 mM HEPES pH 7.5, 0.25 mM NaCl, 1 mM DTT
[8] = target: lettuce eIF4E^1 (resistant cultivar; ∆(108–110)H and A186S) (lettuce); experiment: as above
[9] = target: lettuce eIF4E^2 (resistant cultivar; A70P) (lettuce); experiment: as above
[10] = target: VPg_(88–111)*, doubly labeled fluorescent derivative of VPg_(88–111) (lettuce mosaic virus (LMV strain AF199)); experiment: other fluorescence titration; steady state titration by eIF4E of 250 nM VPg_(88–111)*, read by the AEDANS to fluorescein resonance energy transfer within the peptide; AEDANS excited at 337 nm; simple bimolecular equilibrium model; 25 °C, 20 mM HEPES pH 7.5, 0.25 mM NaCl, 1 mM DTT
[11] = system: lettuce eIF4E (all forms); experiment: Comparison of VPg / m7GTP binding to eIF4E forms (competition, overall affinity)
Description: as §1

[12] = target: T2, eIF4E (Lactuca sativa, UniProt A0A2J6L8Y7); experiment: Stopped-flow kinetics, quenching of eIF4E tryptophan fluorescence; type: binding, lettuce
T2 construct: to obtain untagged full-length eIF4E and eIF4E∆(1–46); made in house; host or cells: E. coli BL21-AI
Procedure: We hypothesized that the 107–120 region could modulate the mechanism of association, the details of which cannot be grasped through equilibrium thermodynamics. Consequently, fast kinetics measurement were performed by stopped flow to compare VPg88–111 and VPg88–120 association with eIF4E (Figure 3).
(A) The quenching of eIF4E tryptophan fluorescence was monitored after mixing 0.3 µM eIF4E with 1 µM VPg88–111 (final concentration). The excitation wavelength was 283 nm. Inset, plots of 1/kobs versus 1/[peptide] at 2.5, 5, 7.5 and 10 µM peptide concentration. VPg88–111 open circles, VPg88–120, open triangles. (B) Stopped-flow traces of VPg88–111*–eIF4E complex formation acquired at 520 nm upon excitation at 480 nm. VPg88–111*: doubly labeled fluorescent derivative of VPg88–111.
The eIF4E tryptophan fluorescence decrease concomitant to association was monitored for several peptide concentrations (Figure S3). A single exponential model fitted satisfactorily with the experimental data allowing the determination of kobs, the apparent constant of the complex formation.
as §1

[13] = target: T3, lettuce eukaryotic translation initiation factor 4E, eIF4E^0 (susceptible cultivar) (lettuce, UniProt A0A2J6L8Y7 1-235)
T3 chain: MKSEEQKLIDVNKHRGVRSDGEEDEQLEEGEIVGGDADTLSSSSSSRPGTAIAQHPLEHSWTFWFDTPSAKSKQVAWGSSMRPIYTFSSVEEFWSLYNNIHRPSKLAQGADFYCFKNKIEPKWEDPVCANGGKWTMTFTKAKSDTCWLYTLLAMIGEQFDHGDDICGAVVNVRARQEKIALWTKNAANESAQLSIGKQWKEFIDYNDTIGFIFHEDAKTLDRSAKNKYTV

VPg_(88–111) synthetic peptide
Kd [1]: 72 nM

VPg_(88–120) synthetic peptide
Kd [1]: 67 nM | k2 (second step of the two-step model, conformational transition of the bound peptide) [2]: 33 s⁻¹

VFSDIGLVQDAFGKERLKLLSGGEIESEHMRSG [VPg88–120]
Kd [3]: 67 ± 7 nM

VPg_(107–120) synthetic peptide
Kd [1]: 852 nM

LMV VPg from the non-resistance-breaking strain (LMV0) (natural protein)
KD with m7GTP [4]: 632 nM | KD with m7GTP [5]: 703 nM | KD with m7GTP [6]: 746 nM | Kd [7]: 276 nM | Kd [8]: 340 nM | Kd [9]: 288 nM

lettuce eukaryotic translation initiation factor 4E, eIF4E^0 (susceptible cultivar) (from UniProt A0A2J6L8Y7 1-235) (natural protein)
Kd [10]: 63 nM

LSGGEIESEHMRSG [VPg107–120]
Kd [3]: 852 ± 57 nM

Cn1c[n+]([C@@H]2O[C@H](COP(=O)([O-])OP(=O)(O)OP(=O)(O)O)[C@@H](O)[C@H]2O)c2nc(N)[nH]c(=O)c21 [m7GTP]
competition between VPg and m7GTP [11]: compete for their binding to eIF4E

VFSDIGLVQDAFGKERLKLLSGGE [VPg88–111]
affinity for eIF4E, in words ([3]; VPg88–111 versus VPg88–120): comparable affinities | dependence of 1/kobs or kobs on peptide concentration ([12]; 0.3 µM eIF4E, 2.5, 5, 7.5 and 10 µM peptide, single exponential fit): gave a straight line, featuring the pseudo first order nature of the association depending on ligand concentration | kinetic model of complex formation ([12]; stopped flow, eIF4E tryptophan quenching): one-step process

B1: LMV VPg from the non-resistance-breaking strain (LMV0) (natural protein)
chain: GKGKRQRQKLRYRQARDNKVGIEVYGDDATMEHYFGAAYTEKGKKSGKTKGMGTKNRRFVNMYGYNPEDFSFIRFLDPLTGKTMDEQVFSDISLVQDAFSKERLKLLSEGEIESEHMRNGIRAYLVKNLTTAALEIDMTPHNSCQLGAKTNNIAGYVDREYELRQTGEARVVAPALIPKDNPITDEDIPVKHE
Kd [13]: 202 nM

B2: whole VPg from LMV-AF199 strain (natural protein)
chain: GKGKRQRQKLRYRQARDNKVGIEVYGDDATMEHYFGAAYTEKGKKSGKTKGMGTKNRKFVNMYGYNPEDFSFIRFLDPLTGKTMDEQVFSDIGLVQDAFGKERLKLLSGGEIESEHMRSGIRAYLVKNLTTAALEIDMTPHNSCQLGIKTNNIAGFVDREYELRQTGEARVVAPALIPKDNPITDEDIPVKHE
Kd [13]: 82 nM
